This assay addresses Insulin Receptor (Isoform B by the title of Table 1; 'the A isoform of the insulin receptor' by the text) (UniProt P06213). Description: competitive displacement of radiolabelled tracer; relative to wild-type human insulin.
Consider “GluA8 derivative of AspB10, ortho-fluoro-PheB24, GluB29-insulin (T-0339) (ligand)”, for which the relative affinity came to 43%.
Under “GluA8 derivative of AspB10, 2F-PheB24, LysB28, ProB29-human insulin (T-0338) (ligand)” stands 52%; under “GlyA21 derivative of AspB10, ortho-fluoro-PheB24, GluB29-insulin (T-0347) (ligand)”, 42%.
For “GlyA21 derivative of AspB10, 2F-PheB24, LysB28, ProB29-human insulin (T-0346) (ligand)” the value was 59%; for “GluA8, GlyA21 derivative of AspB10, 2F-PheB24, GluB29-human insulin (T-0348) (ligand)”, 44%.
